For 1 substance, percent of nuclear ASR1 in a monomeric form and stoichiometry N results are on record in paper PMC3416805.

For this assay, the target named is endogenous ASR1 from tomato fruit nuclei (tomato (endogenous in tomato fruit)) (UniProt Q08655). In words: cross-linking; formaldehyde crosslinking of ground tomato fruit pericarp, nuclei purified, nuclear proteins passed over a Ni2+ column, SDS-PAGE and immunoblot with anti-ASR1 antiserum. A general note: In western blotting, separated proteins are transferred to a membrane and probed.

Where “and” joins values, the source holds several entries; their conditions need not be identical. Identical values can stand only once.

Broadly, the stoichiometry N is a count of units in the complex or per binding partner. Take “endogenous ASR1 from tomato fruit nuclei (from UniProt Q08655 1-115) (natural protein)”: the percent of nuclear ASR1 in a monomeric form is greater than 90%; the stoichiometry N is 2 and 3.
